Test: yeast display, Sf9 membrane polyspecificity reagent, FACS + sequencing; frameworks hold sequencing errors
How it was run: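 Nanobodies came from a synthetic yeast display library in Saccharomyces cerevisiae BJ5465, induced with galactose for 36–48 hours and stained for 1 hour at 4 °C with 10% biotinylated, detergent-solubilized Sf9 membrane reagent. Cells were enriched on streptavidin microbeads and then FACS-sorted, with low and high (top ~1%) gates set on anti-HA fluorescence for expression and streptavidin fluorescence for reagent binding. Each polyreactivity label reflects the gate a clone came from. Genes were amplified by colony PCR, sequenced by MiSeq 2 × 250 and filtered by CDR length.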

Sequence	polyreactivity (PSR sort gate)
QVQLVESGAGLVQAGGSLRLSCAASGFTFWRYVMGTYRPAPGKERELVAGITSGGSTYYADSVKGRFTISRDNAKNTVYLQMNSLKPEDTAVYYCAARSGFRSRHKYDYWGQGTQVSVSS	high polyreactivity
QVQLVESGGGLVQAGGSLRLSCAASGRTFIPYAMGWYRQAPGKERQLVATIRRGGSTYYADSVKGRFTISRDNAKNTVYLQMNSLKPEDTAEYYCAATRYSFGPRRVDYWGQGTQVTVSS	high polyreactivity
QVQLVESGGGLVQAGGSLRLSCAASGRTLRGNAMGWYRQAPGKERELVAGITSGGSTNYADSVKGRFTISRDNAKNTVYLQMNSLKPEDTAVYYCAAAYYLSFGRYYTNYDYWGQGTQVTVSS	high polyreactivity
QVQLVESGGGLVQAGGSLRLSCAAYGSTFGYNAMGWYRQAPGKESELVAAISSTSGSTYYADSVKGRFTISRDNAKNTVYLQMNSLKPEDTAVYYCAADDGDTNAYYFWKPYYYWGQGTQVTVSS	low polyreactivity
QVQLVESGGGLDQAGGSLRLSCAASGSTFTRNAMRWYRQAPGKERELVATISSGGSTNYADSVKGRFTISRDNAKNTVYLQMNSLKPEDTAVYYCAKRSLYSYYYWGQGTQVTVSS	high polyreactivity
QVQLVESGGGLVQAGGSLRLSCAASGITFGSYAMGWYRQAPGKERELVAAITWRGGSTFYADSVKGRFTISRDNAKNTVYLQMNSLKPDDTAVYYCAATLTKYLPRYYWGQGTQVTVSS	low polyreactivity
QVQLVESGGGLVQAGGSLRLSCAASGRTFIYYAMGWNRQAPGKERELVAGITYSVGSTYYADSVKGRFTISRDNEKNTVYLQMNSLKPEDTAVYYCAADATFESDWGQGTQVTVSS	low polyreactivity
QVQLGESGGGLVQAGGSLRLSCAASGSTFPRNAMGWYRQATGKERELVATITSSGGGTYYADSVKGRFTISRDNAKITVYLQMNSLKPEHTAVYYCNADGPAGDAFDYWGQGTQVTVSS	low polyreactivity
QVQLVESGGGLVQAGGSLRLSCAASGYTFSRYAMGWYRQAPGKERELVAAITGRGGSTYYADSVKGRFTISRDNAKNTVYLQMNSLKPEDTAVYYCAAPFGWRPLPISKVTSDYWGQGTQVTVSS	high polyreactivity
QVQLGESGAGLVQAGGSLRLSCAASGRIFLIKAMGCDRQAPGKERELVAAIRRSVGSTYYADSVKGRFTISRDNAKNTVYLQMNSLKPEDTAVYYCATRDYYTYTGRTRYYYWGQGTQVTVSS	high polyreactivity
QVQLVESGGGLVQAGGSLRLSCAASGRTFPFYAMGWYRQPPAKERELVAVITWRGSNTYADSVKGRFTISRDNAKNTVYLQMNSLKPEVTAVYYCAADAWRSYGYRAYDYWGQVTQVTVSS	low polyreactivity
QVQLVESGGGLVQAGGSLRLSCAASGRIYWYYAMGWYRQAPGKERELVATISYGGGNTYYADTVKVRFTISRDNAKNTVYLQMNSLNPEDTAVYYCARVPYAYLPYKPFQQYSYDYWGQGTQVTVSS	high polyreactivity
QVQLVESGGGLVQAGGSLRLSCAEYAMGCYRQAPGKERELVATITARGGSTYADSVKGRFTISRDNAKNTVYLQMNSLKPEDTAVYYCNADYGLFYRATFYGYDYWGQCTQVTVSS	low polyreactivity
QVQLVESGGGLVQAGGSLRFSCAASGRIFTFYAMGWYRQAPGKERELVAAITSGGSTYYADSVKGRFTISRDNAKNTVYLQMNSLKPEDTAVYYCNALHHTQHDYWGQGTQVTVSS	low polyreactivity
QVQLQESGGGLVQAGGSLCMSCAASGSISDYIFMGWYRQAPGKEREFVAGIGIGGNTNYADSVKGRFTISRDNAKNTVYLQMNSLKPEDTAVYYCAANATYTDYYAYWGQGTQVTVSS	low polyreactivity
QVQLVESGGGLVQAGGSLRLSCAASGSTFVKNSMGLYRQAPGKERELVAVISWPGSSTYYADSVKGRFTISRDNAKNTDYLQMISLKPEDTAVYYCNAPKIRPGSHTRHYYWGQGTQVTVSS	low polyreactivity
QVQLVESGGGLVQAGGSLRLSCAASGITFYRNAMGWYRQAPGKERELVATITRGGSTYYADSVKGRFTISRDNAKNTVYLQMNSLKPEDTAVYYCNRAGGYRTTFYSWGQGTQVTVSS	high polyreactivity
QVQLVESGGGLVQAGGSLRLSCAASGFTFSWNVMGWYRQAPGKERELVAAISTSYGGTYYADSVKGRFTISRDNAKNTVYLQMNSLKPEDTAVYYCATLYYPNTSYEYYYWGQGTQVTVSS	low polyreactivity
QVQLVESGGGLVQAGGSLRLSCAASGNTFRPYAMGWYRQAPGKERELVARIRYGGGSTYYADSVKGRFTISRDNAKNTVYLQMNSLKPEDTAVYYCAVYRDQYRNFYYWGLGTQVTVSS	high polyreactivity
QVQLVESGGGLVQAGGSLRLSCAASGRTFWVYAMGWYRQAPGKERELVAAINTGGSTTYADSVKGRFTISRDNAKNTVYLQMNSLKPEDTAVYYCAADTWWYGKYDYWGQGTQVTVSS	low polyreactivity
QVQLVESGGGLVQAGGSLRLSCAASGFIFWDYAMGWYRQAPGKERELVAAISDSGGDTYYADSVKGRFTISRDNSKNTDYLQMNSLKPEDTAVYYCAADVELWVFRGQQYDYWGQGTQVTVSS	low polyreactivity
QVQLVESGGGLVQAGGSLRLSCAASGRTLTIYAMGWYRQAPGKERELVATIRSSGSTNYADSVKGRFTISRDNAKNTVYLQMNSLKPEDTAVYYCSARGFYPTNVGKYNYWGQGTQVTVSS	high polyreactivity

Sequence	polyreactivity (PSR sort gate)
QVQLVESGGGLVQAGGSLRLSCAASGRIFWYNGKGWYRQAPGKERELVAAISYSGGSTNYADSVKGRFTISRDNAKNTVYLQMNSLKPEATAVYYCAAPVPTYHTAWRFFRPDYGYWGQGTQVTVSS	high polyreactivity
QVQLVESGGGLVQAGGSLRLSCAASGFTFERNAMGWYRQAPGKERELVATISQSGTNTYYADSVKGRFTISRDNAKNTVYLQMNSLKPEDTAVYYCNARYLFYRYDYWGQGTQVTVSS	low polyreactivity
QVQLVESGGGLVQAGGSLRLSCAASGRTFFMYAMGRYRQAPGKERELVAAISWGGVSTYYADSVKGRFTISRDNAKNTVYLQMNSLKPEDTAVYYCNAEYYYPRGRYWYDYWGQGTQVTVSS	high polyreactivity
QVQLVESGGGLVQAGGSLRLSCAASGRIFRYYSMGWYRQAPGKERELVAAISGGGSTYYADSVKGRFTISRDNAKNTVYLQMNSLKPEDTAVYYCAALRSSQSKGDYWGQGTQVTVSS	high polyreactivity
QVQLVESGGGLVQAGGSLRLSCAASGSTFDPNVMGWYRQAPGKERELVAVITTTGVSTYYADSVKGRFTISRDNAKNTVYLQMNSLKPEDTAVYYCNAKWYWYLTRDAYRYRYTYDYWGQGTQVTVSS	low polyreactivity
QVQLVESGGGLVQAGGSLRLSCAASGSNYPPNAMGWYRQAPGKEREFVASITSSGGITNYADSVKGRFTISRDNAKNTVYLQMNSLKPVDTAVYYCAAKYYGGTRFRPYGYWGQGTQVTVSS	high polyreactivity
KVQLQESDGALVQAGGSLRLSCAASGSISPQYYMGWYRQAPGKEREFVAISKGTTTYYADSVKGRLTISRVNAKNTVYLQMNSLKPEDTAVYCCAAGRWLQKVPAYWDQGTQVTVSS	low polyreactivity
QVQLQESGGGLVQAGGSLRLSCAASGNIVDADIMGWYRQAPGKERELVASITDGGSTNYADCVKGRFTISRDNAKNTVYLKMNSLKPEDTAVYYCAAIAYPDIPTYFDYDSEYFYWGQGTQVTVSS	low polyreactivity
QVQLQEGGGLVQAGGSLRLSCAASGYISSRPAMGWYRQAPRKERAFVATIADGTSTYYADSVKGRFTISRDNAKNTVYLQMNSLKPEDTAVYYCAAAYNTEFYLSYWGQGTQVTVSS	high polyreactivity
QVQLVESGGGLVQAGGSLRLSCAASGFIFDDYAMGWNRQAPGKERELVAAITDSGDGTDYADSVKGRFTISRDNAKNTVYLQMNSLKPEDTAVYYCAAGLWYSYDYWGQGTQVTVSS	high polyreactivity
QVQLVESGGGLVQAGGSLRLSCAASGRIFPEYAMGWYRQAPGKERELVAAITSGGHYADSVKGRFTISRDNAKNTVYLQINSLKPEDTAVYYCSALNVYGSADVTTLEMDYWGQGTLVTVSS	low polyreactivity
QVHLLDSGGGLVQEGGSLRLSCAASGSTIYVYAMGWYRQAPGKERELVAAITWDGDRTYYADSVKGRFTISRHNAKNTVYLHMTSLNPEDSAVYYCNRDIGGTSVLDDYWGQGTQVTVSS	low polyreactivity
QVQLVESGGGLVQAGGSLRLSCAASGRTIRLYGMGSYRQAPGKERELVAAITWSGGRTYYADSVKGRFTISRDNEKNTFYLQMNSLKPEDSAVYYCAAGNSSYGKPKYYYWGQGTQVTVSS	high polyreactivity
QVQLVESGGGLVQAGGSLRLSCAASGLTFIFYAMGWYRPAPGKERELVAAISVSGGSTYYADSVKGRFTISRDNAKNTVYLQMNSLKPEDTAVYYCAADREHFATYGPHMDYWGQGTQVTVSS	low polyreactivity
QVQLVESGGGLVQAGGSLRLSCAASGFIFPGNAMGWYRQAPGKEREFVAVISGSGGSTYYADSVKGRFTISRDNAKNTVYLQMNSLKPEDTAVYYCAAVYRDKSQRADYDYWGQGTQVTVSS	high polyreactivity
QVKLVESGGGLVQAGGSLRLSCAASGSIFPHYAMGWYRQAPGKERELVAAISRGGSTNYADSVKGRFTISRDNAKNTVYLQMNSLKPEDTAVYYCNALRYYSRFLYAVAYRYDYWGQGSQVTVSS	high polyreactivity
QVQLVESGGGLVQAGGSLRLSCAASGSIFISNAMGWYRQAPGKEWELVAAINWTTGRTRYADSVKGRFTISRDNAKNTVYLQMNSLKPEDTAVYYCAARPYGGGRRSIYYYWGQGHQVTVSS	high polyreactivity
QVQLVESGGGLVQAGGSLRLSCAASGRIFGSNTMGWFRQAPGKERELVAAITGDDSTYADSVKGRFTISRDNAKNTVYLQMNSLKPVDTAVYYCAVVWVWDVWFLVYYWGQGTQVTVSS	low polyreactivity
QVQLVESGGGLVQAGGSLRLSCAASGNTFFVYAMGWDRQAPGKERELVATITLNGGSTYYADSVKGRFTISRDNAKNTVYLQMNSLKPEDTAVYYCAVEPDVYPSWYYYVDYDYWGQGTQVTVSS	low polyreactivity
QVHLVESGGGLVEAAVSLRLSYAASGITVKSYAMGSYRQAPGKERELVADISSSGGTTYYADYVKGRFTISRDNAKNTVYLKMKSLKAEHTAVYYCNAKWGRYFSGGYGDEYDYWGQGTQVTVSS	high polyreactivity
QVQLVESGGGLVQAGASLRLSCAASGFIYSFNTMGWYRQAPGKERELVAAITSGGSTNYADSVKGRFTISRDNAKNTVYLQMNSLKPEDTAVYYCNRQYYSYYGNDYWGQGTQVTVSS	high polyreactivity
